# From IntAct's records for PubMed 21572041
# B1: C-type lectin domain family 2 member D (Homo sapiens), Q9UHP7-1 (parent)
# chain: MHDSNNVEKDITPSELPANPGCLHSKEHSIKATLIWRLFFLIMFLTIIVCGMVAALSAIRANCHQEPSVCLQAACPESWIGFQRKCFYFSDDTKNWTSSQRFCDSQDADLAQVESFQELNFLLRYKGPSDHWIGLSREQGQPWKWINGTEWTRQFPILGAGECAYLNDKGASSARHYTERKWICSKSDIHV
# Variants of: B1
# Details: with klrb1_human KLRB1, Q12918
# Sequence of klrb1_human KLRB1, Q12918 (Q12918 whole entry): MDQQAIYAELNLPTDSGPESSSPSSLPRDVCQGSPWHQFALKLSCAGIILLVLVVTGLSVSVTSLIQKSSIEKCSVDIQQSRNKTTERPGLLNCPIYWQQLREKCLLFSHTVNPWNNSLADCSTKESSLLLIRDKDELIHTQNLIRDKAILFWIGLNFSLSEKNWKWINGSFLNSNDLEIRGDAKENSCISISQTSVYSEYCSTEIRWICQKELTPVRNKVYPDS
row,Variant,effect of a mutation on the interaction
1,Y165A,decreasing interaction strength
2,R175E,disrupting interaction strength
3,N167A,decreasing interaction strength
4,K169E,disrupting interaction strength
5,R180E,disrupting interaction strength
6,K181E,disrupting interaction strength

# Variants of: B1
# Details: with klrb1_human KLRB1, Q12918
# Remark: another data set of the same source
row,Variant,effect of a mutation on the interaction
1,K169E,increasing interaction strength
